From US7439329B2, “GEF-H1b: biomarkers, complexes assays and therapeutic uses thereof” (Sugen, Inc., priority 2002, dated 2008)

Experiments:
[1] = biological target: T1, PAK4 (Homo sapiens, UniProt O96013); assay: In vitro kinase assay, phosphorylation of substrates by PAK4; format: biochemical; parameters: Glutathione-s-transferase (GST) fused PAK4 (residues 291-591); GST (N); made in house; details: autoradiography
Experimental: Next examined, was whether GEF-H1 is a PAK4 substrate. In vitro kinase assays were performed using a GEF-H1 GST-fusion protein, a Maguin-2-like GST-fusion protein and GST control protein as substrates for phosphorylation by PAK4.
The cDNA encoding GEF-H1S obtained in the phage display screen was excised and subcloned into pGEX-4T expression vector to allow for recombinant production of protein for in vitro experiments. The GEF-H1S protein was then mixed with PAK4 kinase and incubated such that PAK4 phosphorylated the GEF-H1S. A portion of this kinase reaction was separated by SDS-PAGE and autoradiographed to visualize the extent of phosphorylation. […] SDS-PAGE is a universal protein separation and visualization technique that is described in Laemmli, Nature, 227(259):680-5, 1970.
From the phosphorylation experiments described above, two peptides of GEF-H1S were identified as being targets for PAK4-induced phosphorylation. The GEF-H1S target residues were identified by aligning the PAK4 activation loop peptide with the GEF-H1S polypeptide sequence amino acids 762 to 921.
The following phosphoisomers (phosphate-modified GEF-H1S peptides) were used in PAK4 kinase assays to determine which residues were specifically phosphorylated. Because certain residues were modified to comprise a phosphate moiety (the underlined residues below), they could not be phosphorylated by PAK4. […]
Target sequence in this assay (O96013 291-591): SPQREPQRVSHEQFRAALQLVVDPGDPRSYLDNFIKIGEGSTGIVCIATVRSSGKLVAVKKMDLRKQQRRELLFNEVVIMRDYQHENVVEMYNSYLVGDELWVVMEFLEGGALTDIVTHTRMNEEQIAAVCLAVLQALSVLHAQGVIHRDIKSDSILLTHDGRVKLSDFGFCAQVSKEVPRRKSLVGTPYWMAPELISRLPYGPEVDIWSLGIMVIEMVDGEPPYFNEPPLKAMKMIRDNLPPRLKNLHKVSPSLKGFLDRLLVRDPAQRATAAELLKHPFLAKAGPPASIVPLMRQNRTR

[2] = biological target: T1, PAK4; assay: GST pull-down binding assay with 293T lysates expressing exogenous PAK4; parameters: expressed in transfected cells; host or cells: 293T; details: GST-fusion protein on glutathione beads
Experimental: FIG. 1: (SEQ ID NOs 32-34 respectively in order of appearance) Direct binding of GEF-H1 to PAK4. Lysates were prepared from 293T cells over expressing (a) myc tagged PAK4 alleles or subdomains and incubated with GST, GST-GEF-H1 (787-921) and GST-Maguin-like bound to Glutathione beads (1,2,3,4 bead designation) or (b) GFP-GEF-H1 and incubated with PAK4 biotinylated peptides (291-355) and (276-324) linked to streptavidin beads. An equivalent amount of beads and excess lysates (500 ug) were used. Eluates of beads and total lysates were analysed by SDS-PAGE and immunoblotted with myc or GEF-H1 antiserum; (c) represents a PAK4 gene schematic outlining the regions of PAK4 used to identify the GEF-H1 interaction domain (GID). d, alignment of the GID defined by the minimal binding region of PAK4 with PAK5 and PAK6.
To confirm the in vitro interaction of GEF-H1S with PAK4, bacterially expressed GST-fusion proteins were generated with the identical sequences isolated by phage display, encoding either amino acids 763-921 of GEF-H1S or amino acids 385-555 from the Maguin-2-like protein. These fusion proteins were bound to glutathione beads and utilized in binding assays with 293T lysates expressing exogenous PAK4. […]
Target sequence in this assay (O96013 whole entry, the tested form may be a part): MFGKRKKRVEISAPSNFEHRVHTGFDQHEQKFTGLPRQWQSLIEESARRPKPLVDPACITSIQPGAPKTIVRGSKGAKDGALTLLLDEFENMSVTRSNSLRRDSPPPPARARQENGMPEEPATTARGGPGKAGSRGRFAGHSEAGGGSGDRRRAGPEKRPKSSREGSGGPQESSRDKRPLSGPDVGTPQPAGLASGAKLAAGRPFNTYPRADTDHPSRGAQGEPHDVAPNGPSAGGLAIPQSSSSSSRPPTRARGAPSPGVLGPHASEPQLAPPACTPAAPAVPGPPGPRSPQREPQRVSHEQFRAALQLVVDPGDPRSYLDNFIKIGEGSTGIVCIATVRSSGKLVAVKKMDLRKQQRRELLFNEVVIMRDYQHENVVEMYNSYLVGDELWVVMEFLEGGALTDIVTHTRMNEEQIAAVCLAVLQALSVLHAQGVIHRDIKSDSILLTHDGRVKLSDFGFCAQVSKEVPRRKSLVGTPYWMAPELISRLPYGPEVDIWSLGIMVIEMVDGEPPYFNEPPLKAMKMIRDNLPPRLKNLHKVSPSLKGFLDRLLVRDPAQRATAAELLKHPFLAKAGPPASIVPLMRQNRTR

B1: GST-GEF-H1S (aa763-921): bacterially expressed GST-fusion protein of amino acids 763-921 of GEF-H1S (protein)
chain: LRESEQARALLEREAEEARRQLAALGQTEPLPAEAPWARRPVDPRRRSLPAGDALYLSFNPPQPSRGTDRLDLPVTTRSVHRNFEDRERQELGSPEERLQDSSDPDTGSEEEGSSRLSPPHSPRGETLAETWTRDFTRMQDIPEETESRDGEAVASES
modifications: left off: a dimerising Fc or GST
notes: bacterially expressed GST-fusion protein of amino acids 763-921 of GEF-H1S
phosphorylation by PAK4 in vitro [1]: showed phosphorylation | binding to full-length myc-tagged PAK4 protein and the kinase domain (amino acids 291-591) [2]: able to bind strongly
